From paper PMC9213775 (iScience, 2022) come the findings set out here.

The data set deals with the molecule itself. The experiment in a line: AUC.

B1: UDS1-His6 (natural protein, Aspergillus nidulans, UniProt Q5B1I5 1-941, looked up)
chain: MNGFDFRSSQSSYGDPRHFSDASYGVPQPPPTKVLLDGYRDALGPANAEKSLYNSANPTSHPRRSIPPSANDPVAMYLLTETAMGDSVNYEILSVEEVEGLKKELRVLSNRMNAAKRKLALELKLRDAAMSLSRLHHKEEHDVDGSGRNEPNTDKTNEELVHINRKCEELSMDIWYSERKVQEIQKRLLEHTAGVLQLTHKGLKKNSKNGMPHTPESLSSSNTVDDFDDRSLYKASDPLDGPETYETRAPPPDNLAHDNSMQETERKLESMSSRLRDMLLQLDPDSEFSQIPQPSTSGDSFEPSAMIDAHLRYIENGISALGSLPKADMASQSLDPVSEQQLVEMRTQLLSIMENPGLPRAQTLPTAPDPTDSDLAKHLTFLSVGINGLESRVEKLLEQKSILTTQIQQQRELNSKSDAERDAKIADLIEQLAHLRKELELAEREGQQSKEDHDLTLKELEDVRRELLESRETHSSRDLGNSKNEAQQHAEAEIARLQSVIQEIQQEKDEHCEAHRRAEAEIDRLQAVIHQIQQEKDEHREAHERAEAETTRLQTIVEEVQQEKDEQHEAHGRAVAEVTRLQDIIQKIEQEKIERHEADERAEAEIVRLRDTIREIQQEKEEHHEARVRLEGEVARLQGVIGQLQESAESRESAEQQVAQLEETIHQIRHDADIRIKEATDSRAQADAKIAQLEGAMNEVRESLESQLKEATEARNNAEENSTRLQKELTELERDVVRAQTELTMVKAELDGAYGTRAQRAAEAAADPALFHELDELKARNFEMAEELAALKAGKPGSGDVHNRVETLERELRETVDDYEAMTKASIEFEKERERFESMIDSLRDRCEQLETQLNEERISWMGANNSASSMGRDGPYETTSTMVLKNEFKKMMRDTRAENMKILKAEQEERRKLEAILRNLKREQANLSGKSNISRTVTAS
The stoichiometry N is the number of molecules, sites or subunits per partner or assembly. Consider B1, for which the “stoichiometry N” value amounted to 2.
